According to US20180208648A1 (SCHOLAR ROCK, published 2018):

Key:
murine proGDF11 = target: T1, murine proGDF11 (mouse, UniProt Q9Z1W4 25-405, biotinylated, site not stated); assay: BLI (ForteBio Octet)
T1 construct: also called mu proGDF11
T1 sequence: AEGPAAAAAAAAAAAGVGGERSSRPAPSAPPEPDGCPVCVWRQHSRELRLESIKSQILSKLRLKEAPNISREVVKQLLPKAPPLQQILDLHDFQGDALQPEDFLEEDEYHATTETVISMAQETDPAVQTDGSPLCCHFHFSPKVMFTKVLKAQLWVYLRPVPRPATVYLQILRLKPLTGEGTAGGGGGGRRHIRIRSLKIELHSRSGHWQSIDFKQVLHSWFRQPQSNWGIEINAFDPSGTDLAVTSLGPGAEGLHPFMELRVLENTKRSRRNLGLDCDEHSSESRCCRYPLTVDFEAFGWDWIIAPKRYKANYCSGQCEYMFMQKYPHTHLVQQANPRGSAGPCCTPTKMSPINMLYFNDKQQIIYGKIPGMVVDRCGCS

human proGDF8 = target: T2, human proGDF8 (human, UniProt O14793 24-375, biotinylated, site not stated); assay: BLI (ForteBio Octet QKe), antigen on streptavidin biosensor, antibody in solution
T2 construct: also called hu proGDF8; human proMyostatin
T2 sequence: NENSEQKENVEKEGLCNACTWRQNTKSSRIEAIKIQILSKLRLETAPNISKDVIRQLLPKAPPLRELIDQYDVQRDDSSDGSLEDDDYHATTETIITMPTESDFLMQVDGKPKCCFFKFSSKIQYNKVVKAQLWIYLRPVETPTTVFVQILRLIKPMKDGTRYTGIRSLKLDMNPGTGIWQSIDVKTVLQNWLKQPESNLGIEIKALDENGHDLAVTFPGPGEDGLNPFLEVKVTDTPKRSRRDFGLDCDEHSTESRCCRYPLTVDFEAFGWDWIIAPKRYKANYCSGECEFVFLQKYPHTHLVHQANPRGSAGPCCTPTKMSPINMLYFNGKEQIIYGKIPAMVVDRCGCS

human latent GDF8 = target: T3, human latent GDF8 (human, UniProt O14793 24-375, biotinylated (immobilized on streptavidin biosensors), site not stated); assay: as above
T3 construct: also called human latent Myostatin
T3 sequence: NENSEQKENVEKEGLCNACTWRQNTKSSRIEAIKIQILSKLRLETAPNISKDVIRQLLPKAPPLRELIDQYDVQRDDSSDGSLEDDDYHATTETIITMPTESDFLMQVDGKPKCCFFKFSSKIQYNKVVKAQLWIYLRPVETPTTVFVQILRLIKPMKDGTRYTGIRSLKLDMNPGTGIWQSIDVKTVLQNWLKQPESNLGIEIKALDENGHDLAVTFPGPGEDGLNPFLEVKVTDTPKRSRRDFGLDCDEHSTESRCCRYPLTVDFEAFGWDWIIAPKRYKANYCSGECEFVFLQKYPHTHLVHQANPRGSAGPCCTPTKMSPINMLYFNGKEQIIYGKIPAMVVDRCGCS

human proActivin A = target: T4, human proActivin A (human, UniProt P08476 21-426, biotinylated (immobilized on streptavidin biosensors), site not stated); assay: as above
T4 construct: also called human Activin A; Inhibin-beta A pro-protein
T4 sequence: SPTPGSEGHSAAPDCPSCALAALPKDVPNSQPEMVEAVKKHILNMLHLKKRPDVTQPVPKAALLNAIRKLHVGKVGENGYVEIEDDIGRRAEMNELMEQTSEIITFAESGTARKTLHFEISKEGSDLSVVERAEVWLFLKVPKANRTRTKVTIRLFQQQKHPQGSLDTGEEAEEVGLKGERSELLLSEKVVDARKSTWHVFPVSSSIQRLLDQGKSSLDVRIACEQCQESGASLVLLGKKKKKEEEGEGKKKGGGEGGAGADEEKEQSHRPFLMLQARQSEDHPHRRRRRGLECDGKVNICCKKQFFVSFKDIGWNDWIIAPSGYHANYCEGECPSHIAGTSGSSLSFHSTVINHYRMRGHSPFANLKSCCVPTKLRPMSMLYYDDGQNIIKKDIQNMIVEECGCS

Binder	Kd (murine proGDF11) [nM]	binding result (human proGDF8)	binding result (human latent GDF8)	binding result (human proActivin A)
GDF11 Inh-2 (antibody, V domains shown, also called Clone GDF11 Inh-2) VH: not shown VL: DIQMTQSPSSLSASVGDRVTITCQASQDISNYLNWYQQKPGKAPKLLIYDASNLETGVPSRFSGSGSGTDFTLTISSLQPEDVATYYCQKYSTAPLTFGGGTKVEIKR	1.73	no binding (tested: 50 µg/mL)	no binding (tested: 50 µg/mL)	no binding (tested: 50 µg/mL)
GDF11 Inh-4 (antibody, V domains shown, also called Clone GDF11 Inh-4) VH: QVQLVQSGAEVKKPGASVKVSCKASGYTFTSYGISWVRQAPGQGLEWMGWISAYNGNTNYAQKLQGRVTMTTDTSTSTAYMELRSLRSDDTAVYYCARTPPLWFGEYGAFDIWGQGAMVTVSS VL: DIQMTQSPSSLSASVGDRVTITCQASQDISNYLNWYQQKPGKAPKLLIYDASNLETGVPSRFSGSGSGTDFTLTISSLQPDDFATYYCQQSYTTPITFGQGTRLEIKR	–	no binding (tested: 50 µg/mL)	no binding (tested: 50 µg/mL)	no binding (tested: 50 µg/mL)
